Test: soluble on expression in E. coli; label from the status in PepcDB or PDB records

Sequence | soluble on expression in E. coli
MTFTPPEFKILSVNTRNLETIFSTLLGRYKIITDPPVSEAVSSGEIIRNTLETLLARTHKVVICKTDRETARDVFKQLSNELREVLKENNEEKNKQAILFLLGALLHRYFRLIKEYDNFNSYIPYPSFLFSKPPSNVKDCRLFQAIRLALGLPEVMERNYRINDLKILDVTTIVTALETFRDNMQLIVGKDEGKMPRYKSYPHFAADKNFETYLQEIIDEHKRRNPVVLNQFKAINFIQSLVKQIEEEQRQIEEALTHLGKFLPKTCSDFKTISLELMEEQIKAQIESNVLQEKIIDLLYTGHIQENFSTMDCGSFIEAMKNCNSSLARYRALGGYCLLLQNEGVKEQLRFCIHQALGVEINPNELTDKDMLDAIRLLKTYFEANPKVELNFDFFNGKGSMNTFILQTELALAKKVQTVNKAQEDNSETRTTSLFV | not soluble
MGSDKIHHHHHHMFVIWSHRTGFIMSHQLTFADSEFSSKRRQTRKEIFLSRMEQILPWQNMVEVIEPFYPKAGNGRRPYPLETMLRIHCMQHWYNLSDGAMEDALYEIASMRLFARLSLDSALPDRTTIMNFRHLLEQHQLARQLFKTINRWLAEAGVMMTQGTLVDATIIEAPSSTKNKEQQRDPEMHQTKKGNQWHFGMKAHIGVDAKSGLTHSLVTTAANEHDLNQLGNLLHGEEQFVSADAGYQGAPQREELAEVDVDWLIAERPGKVRTLKQHPRKNKTAINIEYMKASIRARVEHPFRIIKRQFGFVKARYKGLLKNDNQLAMLFTLANLFRADQMIRQWERSH | not soluble
MLSSLRRVVPSLPRGSRSLTSQQIFDREKKFGCHNYKPLPVALSKGEGCFVWDVEGKKYFDFLAAYSAVNQGHCHPKLLKVVQEQASTLTLTSRAFYNNVLGEYEEYVTKLFKYDKVLPMNTGVEACESAVKLARRWAYDVKGVKDNEAVVVFAENNFWGRSIAAISASTDPDSFARFGPFVPGFKTVPYNNLKAVEDAIKDKNVAAFMVEPIQGEAGVVLPDPGYLKGVSDLCKKYNVLFITDEVQSGLGRSGKLLAHYHDNVRPDIVVLGKALSGGFYPVSAVLCDDNVMMNIKPGEHGSTYGGNPLACKVAIAALEILQEEKLVENSAVMGDLLMSKLKTLPKDIVSTVRGKGLFCAIVINKKYDAWKVCLKLKENGLLAKNTHGDIIRFAPPLCINKEQVEQAADIIIKTVTDFAKQN | not soluble
MSVVAAVDCGTNSIRLLISEQTPTGLREITRQMTIIRLGEGVDATGKIDPVAIERARVALSGYVDTMLAHKVTAVRMVATSATRDASNKDDFFAMTADLLGAVVPGACAEVISGAEEAELSFIGAVADIPDTDRPVCVIDLGGGSTEFVVGKKTGEILGAYSTQMGCVRLTERLMVSDPPTAEEIAQAREYVDTQLTVALDNVPIMQASMVVGCAGTFTTVAALALGLDSYDPQRIHGSVHTADRLREETQRLIGETSQQRAAHSVMHLGRADVIAGGSVVIEQILAMMQRLGVSDSVTISEKDILDGIVARLLEELEHHHHHH | soluble
MGSDKIHHHHHHMDTKAFKRSLQHSENYNRKGFGHQAEVATQLQSEYQSNLIQEIRDRNYILQRGDVTIRLAQAFGFCWGVERAVAMAYETRQHFPTEHIWITNEIIHNPSVNQRMQEMEVEFIPIEGKNKDFSVVGTGDVVILPAFGASVQEMQILHDKGCKIVDTTCPWVSKVWNTVEKHKKIDYTSIIHGKYKHEETVATSSFAGKYLIVLNLQEAQYVADYIINGGNREEFLTKFAKACSAGFDPDRDLERVGIANQTTMLKDETEQIGKLFERTMLQKYSPIELNQHFQSFNTICDATQERQDAMLELVEHNLNLMVVIGGFNSSNTTQLQQIAFERRIPSYHIDTVERIKSGDSIEHRQLNGQLITTENWLPDGEIVVGITSGASTPDKVVEDVIEKIFAVKATAALV | not soluble
MDISIEFGLYPTESDLTELQQYFPDTNLKKLYEVEAYHKKLETILDSEFSTERESLIAEIDELESQLTTLNQELQELGNIPNLSSEYLENYSKLTATINALKEQNEAYLKESGLSKEKSETDADLKRSTEDILLDLEVKINSKMREVNNILYPDIRKAPQINLNAHNSYSFYTPDDDGTGTKFKGMIVFDLVMLYLTNLPALAHDSLLLSNVSYQATEALLKLYDQSRSLNKQVFLVFDKASSYSPDANQLLSENTVLRLSSNGNELYGISWNKGENSDEI | not soluble
MSEQNTAKTLPDRNEIEESSTWRLEDIFQTDTEWEKEFQAIKELLPKLTEFKGKLGDSANNLLEALQYEDEISMRLGKLYTYAHMRYDQDTTNSVYQALNDRATNLYSQVSSSTAYIVPEILSISEDTLQTFLKENRDLSVYEHALEEITRQRPHVLSEAEEALLAEASEVMSTSSNTFGMLNNADLKFPSIKGEDGEEVEITHGRYIQFLESDDRRVREDAFKAVYETYGKYKNTFASTLSGAVKRNNFNARVRKYDSARQAALSNNNIPEAVYDQLIESVNDNLHLLHRYIDIRKRALGLDELHMYDLYTPLVPEVKMNVKYEEAQDMLLKSLHVLGDEYVDILKEAYENRWVDVYENKGKRSGAYSSGAYGTNPYILMNWHDNVNNLFTLAHEFGHSVHSYYTRKTQPHVYGDYSIFVAEVASTCNEALLNDYLLKTTEDKKERLYLLNHYLEGFRGTVFRQTMFAEFEHIIHKKVQEGHAVTPDMLTEIYYDLNKKYFGDALVIDEEIGLEWSRIPHFYYNYYVYQYATGFSAATALSKQILEEGQPAVERYINEFLKAGSSDYPIEVLKKAGVDMASPEPVKEALQVFEEKLNELEALLFEEK | not soluble
MNANLPPSAISELHGPRLLLRAWRDSDREAFAEMCADPQVMEFFPSVLDRAQSDALVDRVQAHFAERGYGPWALELPGEAAFIGFTGLFDVTMDVHFAPTVEIGWRLAPAYWGRGLAREAAETALDFAFERLRLPEVVAFTTPPNRRSWGLMERLGMRRDPAEDFDHPLLAADHPMRRHILYRVDAARWAER | not soluble
EFKDVFIEKQKGEILGVVIVESGWGSILPTVIIANMMHGGPAEKSGKLNIGDQIMSINGTSLVGLPLSTCQSIIKGLKNQSRVKLNIVRCPPVTTVLIRRPDLRYQLGFSVQNGIICSLMRGGIAERGGVRVGHRIIEINGQSVVATPHEKIVHILSNAVGEIHMKTMPAAMYRLLTAQEQPVYI | soluble
MDVAGEKQQRKGEAIARIEAEKNAYTVAQLADEYFERMIAGRWKHPNIVRSRIEKDIKPAIGSLKVEDVKPRHIDDVLKAVMKRGAPSIANDTLRWLKRMFNYAIKRHIIEYNPAAAFLEHHHHHH | not soluble
VNSHCSHTFITDNRSPRARRGHAMSTLHKVKAYFGMAPMEDYDDEYYDDRAPSRGYARPRFDDDYGRYDGRDYDDARSDSRGDLRGEPADYPPPGYRGGYADEPRFRPREFDRAEMTRPRFGSWLRNSTRGALAMDPRRMAMMFEDGHPLSKITTLRPKDYSEARTIGERFRDGSPVIMDLVSMDNADAKRLVDFAAGLAFALRGSFDKVATKVFLLSPADVDVSPEERRRIAETGFYAYQ | not soluble
MQQNIQYTYSSDPRSGGNQNQQLHGISQFQQNSYQPTTYSNSNANNFHSSNSATFIPNSVTQTPQRRMGEEKSLVNMLDAYFIDSTTPSTSTSWNNQQPVQMSSIQQSVGSYNQQIPQLKVGDVDLQVEGMNVKLSSSPDKGEKDRVKKARQAEAARMRYHRLSNEEKRELNLKRTLAQKRKRQREKEMEELESILRETNDIQEDPDITEQLREKRMRAKWAEAARTRYARMTPEERRAHNTRRRMRQMQNAMSAIKACGMATGDPQKDDEAVRLHIKTQNAKKAEAARQRYHRMNDDEKRVYNQRRTEAFRRRRMEEEMLLAMPIGRINGEALDRAQQIVVRNAKRAEAARLRYQRMTPDQRKVAKQEPKEESWPSHEQSDTQIDHDLDLGDSYNQKRYTPKRRRNEMDDMISAGQMAVGSSGTITMGTGTPAKKDDMDALSSLERDVVKRTQHAQQILLRQRANQSSGTPRSVTPPPQAYIISNGQQQHQQLVGNQGNNGIGQHQVLHQGHMQQQQIQVSHQQSSQSIPQNIYTSGMIIQNQGQQQQGQQQQQGQSQQILNNPYRT | not soluble
GSPGIPGSTRMAYQHCPFDTLLILDFETTSDAANQDYPCEVIQFAIVAYDVPNDKIREDISFNKYVKPVLNRTLTKNCVDFTGIPQRSIDTADTFDVVYEQFQQWLITLGLEEGKFAFVCDSRQDLWRIAQYQMKLSNIQMPAFFRQYINLYKIFTNEMDRMGPKELSATTNIGKMNEYYDLPTIGRAHDAMDDCLNIATILQRMINMGAKVTVNELLTCCASWRRQPLVYNKEWRSSFMDAGKIFERVLPLVVTTIRAGDFRLEMYGVCRYCRKGMDVCGTSHQQTPHDLYKNEEDPIHFAKIAGYY | soluble

Reference: the DeepSol protein solubility set
